US20160361280A1

Tests used:
[1] = target: hCD1d/β-2-microglobulin refolded with ThrCer 2 (human) (UniProt P15813); assay: SPR (BIAcore); calculated from experimental koff and Kd
[2] = target: hCD1d/β-2-microglobulin refolded with ThrCer carbamate 11 (human) (UniProt P15813); assay: as above
[3] = target: hCD1d/β-2-microglobulin refolded with ThrCer thioamide 9 (human) (UniProt P15813); assay: as above
[4] = target: hCD1d/β-2-microglobulin refolded with α-GalCer 1 (human) (UniProt P15813); assay: as above
[5] = target: hCD1d/β-2-microglobulin refolded with α-GalCer carbamate 8 (human) (UniProt P15813); assay: as above
[6] = target: hCD1d/β-2-microglobulin refolded with α-GalCer thioamide 6 (human) (UniProt P15813); assay: as above
[7] = target: hCD1d/β-2-microglobulin refolded with ThrCer 2 (human) (UniProt P15813); assay: SPR (BIAcore), kinetics; TCR injected over immobilised biotinylated hCD1d-lipid
[8] = target: hCD1d/β-2-microglobulin refolded with ThrCer carbamate 11 (human) (UniProt P15813); assay: as above
[9] = target: hCD1d/β-2-microglobulin refolded with ThrCer thioamide 9 (human) (UniProt P15813); assay: as above
[10] = target: hCD1d/β-2-microglobulin refolded with α-GalCer 1 (human) (UniProt P15813); assay: as above
[11] = target: hCD1d/β-2-microglobulin refolded with α-GalCer carbamate 8 (human) (UniProt P15813); assay: as above
[12] = target: hCD1d/β-2-microglobulin refolded with α-GalCer thioamide 6 (human) (UniProt P15813); assay: as above
[13] = target: hCD1d/β-2-microglobulin refolded with ThrCer 2 (human) (UniProt P15813); assay: SPR (BIAcore), equilibrium binding; TCR injected over immobilised biotinylated hCD1d-lipid
[14] = target: hCD1d/β-2-microglobulin refolded with ThrCer carbamate 11 (human) (UniProt P15813); assay: as above
[15] = target: hCD1d/β-2-microglobulin refolded with ThrCer thioamide 9 (human) (UniProt P15813); assay: as above
[16] = target: hCD1d/β-2-microglobulin refolded with α-GalCer 1 (human) (UniProt P15813); assay: as above
[17] = target: hCD1d/β-2-microglobulin refolded with α-GalCer carbamate 8 (human) (UniProt P15813); assay: as above
[18] = target: hCD1d/β-2-microglobulin refolded with α-GalCer thioamide 6 (human) (UniProt P15813); assay: as above

kon [1]: 258000 M⁻¹ s⁻¹ | kon [2]: 259000 M⁻¹ s⁻¹ | kon [3]: 520000 M⁻¹ s⁻¹ | kon [4]: 258000 M⁻¹ s⁻¹ | kon [5]: 534000 M⁻¹ s⁻¹ | kon [6]: 128000 M⁻¹ s⁻¹ | koff [7]: 1.18 s⁻¹ | koff [8]: 1.19 s⁻¹ | koff [9]: 1.88 s⁻¹ | koff [10]: 0.565 s⁻¹ | koff [11]: 0.919 s⁻¹ | koff [12]: 0.537 s⁻¹ | Kd [13]: 4.57 µM | Kd [14]: 4.6 µM | Kd [15]: 36.1 µM | Kd [16]: 2.19 µM | Kd [17]: 1.72 µM | Kd [18]: 4.2 µM
Substance: soluble human iNKT cell T cell receptor (Vα24/Vβ11 heterodimer) (TCR)
